Tests used:
CO [1] = experiment: Bimolecular fluorescence complementation (BiFC) in tobacco leaf cells; type: cell-based, Arabidopsis; details: split YFP, Nicotiana benthamiana leaves, 2–3 days after infiltration, Figure 5C
Procedure: BiFC was performed as described by Sun et al.. For BiFC assays, MRG2C cDNA was amplified using primers MRG2-11/MRG2-12, and then cloned into pXY103 and pXY106 vectors. CO cDNA was amplified by primers CO-3/CO-4, and then cloned into a pXY104 vector. Leaves of 4- to 8-week-old Nicotiana benthamiana plants were co-infiltrated with Agrobacterium tumefaciens strain […] carrying transgene constructs. Localization of BiFC fluorescence was observed 2–3 days after infiltration using a confocal laser scanning microscope (LSM 710, ZEISS, Germany).

MRG2 = experiment: GST pull-down assay, His-tagged MRG2; type: binding, Arabidopsis; details: in vitro, purified proteins from E. coli, Figure 5B
Procedure: (§1) MRG2 and MRG2C (442–984) cDNA were amplified with primers MRG2-1/MRG2-10 and MRG2-9/MRG2-10, respectively, and then cloned into pET-30a vector (Novagen, www.novagen.com). The resulting constructs and pET-30a-MRG2N were used for purification of His-tagged MRG2, MRG2C, and MRG2N proteins. CO cDNA was amplified using primers CO-1/CO-2, and then cloned into pGEX-4T-1 vector for purification of GST-fused CO proteins. Pulldown experiments were performed according to a previously described protocol.

CO [2] = experiment: Pull-down truncation analysis of MRG2 with GST-fused CO; type: binding, Arabidopsis; details: in vitro pull-down, Figure 5B
Procedure: as §1

Row | Molecule | interaction with CO in vivo (CO [1]) | pull-down of His-tagged MRG2 (MRG2) | binding to CO (CO [2])
1 | MRG2: Arabidopsis Morf Related Gene group protein MRG2 (protein, UniProt Q4V3E2 1-327, looked up) Protein MRG2: MGSPNAAAETDLTTDDFIGDTRRDSGSDTETNTDCDGEDLPLLLLPAPPGHFEEGERVLAKHSDCFYEAKVLKVEFKDNEWKYFVHYIGWNKSWDEWIRLDCLLKHSDENIEKQKEQGLKQQGIKSAMAWKVSKMKPRSPNVARGRKRKQDSVDTEKNVLPSDNLLSFNIPPALRKQLLDDFEFVTQMQKLVQLPRSPNVDGILKKYIDSQMKKHGRVTDSLEEILKGLRCYFDKALPVMLLYNNERKQYEESVSGGVSPSTVYGAEHLLRLFVKLPELLVHVNMAEETLKELQDNFVDILRFLRKNQSVLFVSTYKAVEEMEKKEG | interacted in vivo |  | 
2 | GST-fused CO: GST-fused CONSTANS protein purified from E. coli (protein, left off: GST, end not stated, kept, GST-fused CONSTANS protein purified from E. coli) MLKQESNDIGSGENNRARPCDTCRSNACTVYCHADSAYLCMSCDAQVHSANRVASRHKRVRVCESCERAPAAFLCEADDASLCTACDSEVHSANPLARRHQRVPILPISGNSFSSMTTTHHQSEKTMTDPEKRLVVDQEEGEEGDKDAKEVASWLFPNSDKNNNNQNNGLLFSDEYLNLVDYNSSMDYKFTGEYSQHQQNCSVPQTSYGGDRVVPLKLEESRGHQCHNQQNFQFNIKYGSSGTHYNDNGSINHNAYISSMETGVVPESTACVTTASHPRTPKGTVEQQPDPASQMITVTQLSPMDREARVLRYREKRKTRKFEKTIRYASRKAYAEIRPRVNGRFAKREIEAEEQGFNTMLMYNTGYGIVPSF |  | could pull-down MRG2 | 
3 | MRG2C: MRG domain of MRG2, cDNA 442–984 (protein, left off: His tag, end not stated, kept) RKQDSVDTEKNVLPSDNLLSFNIPPALRKQLLDDFEFVTQMQKLVQLPRSPNVDGILKKYIDSQMKKHGRVTDSLEEILKGLRCYFDKALPVMLLYNNERKQYEESVSGGVSPSTVYGAEHLLRLFVKLPELLVHVNMAEETLKELQDNFVDILRFLRKNQSVLFVSTYKAVEEMEKKEG | interacted in vivo |  | contributed to binding to CO
4 | MRG2N: chromodomain of MRG2, cDNA 1–369 (protein, left off: His tag, N-terminal, kept) MGSPNAAAETDLTTDDFIGDTRRDSGSDTETNTDCDGEDLPLLLLPAPPGHFEEGERVLAKHSDCFYEAKVLKVEFKDNEWKYFVHYIGWNKSWDEWIRLDCLLKHSDENIEKQKEQGLKQQG |  |  | not

Source: PMC4161306, “Regulation of Arabidopsis Flowering by the Histone Mark Readers MRG1/2 via Interaction with CONSTANS to Modulate FT Expression” (PLoS Genetics, 2014)
